Results as given in paper PMC3767657.

Assays:
[1] = biological target: HIV-1 integrase (IN) T174I, in virus particles (HIV-1 (NL4.3-based vector)); assay: cross-linking; purified virus (50 ng p24 equivalents) in PBS/0.25% Triton X-100 treated with BS3 for 20 min at room temperature, quenched with Tris-HCl pH 7.5, reducing SDS-PAGE, anti-IN Western blot; virus produced in the presence of DMSO or 1 uM GS-B, or cell-free virus treated with GS-B
[2] = biological target: HIV-1 integrase (IN), wild type, in virus particles (HIV-1 (NL4.3-based vector)); assay: as above

| Substance | stoichiometry N [1] | stoichiometry N [2] |
| --- | --- | --- |
| HIV-1 integrase (IN) T174I, in virus particles (enzyme) | 2 |  |
| HIV-1 integrase (IN), wild type, in virus particles (enzyme) |  | 2 |
